From PMC3335097 (2012)
No end group written: not given here. *: point of attachment. MTSSL = spin label (R1), CC1(C)C=C(CS*)C(C)(C)N1[O]

What was measured:
[1] = target: T1, p15 fragment of spin labeled cleaved mouse Bid (cBidR1), MTSSL on C126 (Mus musculus (Mouse), UniProt P70444, MTSSL spin label (R1) on C126); assay: DEER EPR (also cw EPR; Trp/Tyr fluorescence at 0.5 uM); no detergent; MTSSL on C30 and C126; 2% OG or 2% DDM dissociates (reversed by OG removal), cardiolipin liposomes only partly
T1 chain: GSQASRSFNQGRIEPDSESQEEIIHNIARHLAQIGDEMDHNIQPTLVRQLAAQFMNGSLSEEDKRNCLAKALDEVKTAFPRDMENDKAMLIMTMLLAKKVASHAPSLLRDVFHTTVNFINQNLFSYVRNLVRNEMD

[2] = target: T2, p15 fragment of Caspase-8-cleaved mouse Bid (tBid) (Mus musculus (Mouse), UniProt P70444); assay: SEC co-elution as 20 kDa complex, with SDS-PAGE and CD melting; no detergent; detergent (DDM/OG) dissociates the fragments, cardiolipin liposomes only partly
T2 chain: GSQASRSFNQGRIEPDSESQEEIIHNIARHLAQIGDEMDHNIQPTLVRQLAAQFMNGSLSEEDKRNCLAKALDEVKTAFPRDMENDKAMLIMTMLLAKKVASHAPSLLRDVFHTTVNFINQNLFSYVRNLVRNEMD

| Binder | binding result [1] | binding result [2] |
| --- | --- | --- |
| p7 fragment of spin labeled cleaved mouse Bid (cBidR1), MTSSL on C30 (protein) MDSEVSNGSGLGAEHITDLLVFGFLQSSGC(MTSSL)TRQELEVLGRELPVQAYWEADLEDELQTD | binds | – |
| p7 fragment of Caspase-8-cleaved mouse Bid (protein) MDSEVSNGSGLGAEHITDLLVFGFLQSSGCTRQELEVLGRELPVQAYWEADLEDELQTD | – | binds |
